Columns and labels:
[1] = target: T1, human sodium-dependent phosphate transporter 2B (NaPi2b) (human, UniProt O95436 1-690); assay: flow cytometry, HEK293-6e cells transfected with human NaPi2b
T1 construct: UniProt ID is given as 095436 [sic]; also called hNaPi2b; Hu NaPi2b
T1 sequence: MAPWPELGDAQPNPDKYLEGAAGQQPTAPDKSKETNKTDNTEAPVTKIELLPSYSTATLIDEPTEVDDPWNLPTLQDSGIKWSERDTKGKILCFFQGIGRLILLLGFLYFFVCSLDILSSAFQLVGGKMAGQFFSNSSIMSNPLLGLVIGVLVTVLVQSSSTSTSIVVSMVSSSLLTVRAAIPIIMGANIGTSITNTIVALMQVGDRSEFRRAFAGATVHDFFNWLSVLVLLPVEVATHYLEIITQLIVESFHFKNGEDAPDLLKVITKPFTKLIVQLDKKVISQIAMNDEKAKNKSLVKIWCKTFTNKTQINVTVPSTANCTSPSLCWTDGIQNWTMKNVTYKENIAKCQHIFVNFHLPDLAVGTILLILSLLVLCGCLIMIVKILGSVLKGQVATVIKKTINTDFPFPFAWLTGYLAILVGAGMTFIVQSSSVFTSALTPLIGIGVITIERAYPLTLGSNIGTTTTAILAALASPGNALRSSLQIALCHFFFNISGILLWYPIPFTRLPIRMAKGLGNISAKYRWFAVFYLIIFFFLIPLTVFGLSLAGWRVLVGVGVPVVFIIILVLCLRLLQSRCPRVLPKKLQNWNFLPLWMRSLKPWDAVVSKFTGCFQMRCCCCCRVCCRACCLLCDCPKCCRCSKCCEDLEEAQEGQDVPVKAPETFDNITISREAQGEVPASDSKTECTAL
Experimental: (§1) Briefly, HEK293-6e cells were transfected for ~24 hours to transiently express human NaPi2b, cynomolgus or mouse NaPi2b, at 1 μg of DNA per 1 million cells. Following transfection, 50,000 cells per well were seeded in V-bottom 96-well plates and incubated with 200 nM of primary antibody for 18-24 hours at 4° C. to prevent internalization. […] Following staining and washing, fluorescence was detected by flow cytometry on BD LSRFortessa™ Cell Analyzer (BD Biosciences, Franklin Lake, NJ) with 10,000 minimum events collected per well. The AF647/APC-A GeoMean (fluorescence signal geometric mean, proportional to anti-Human AF647 binding) was calculated for the live singlet cell population for each primary antibody using FlowJo™ v8 software (BD Biosciences, Franklin Lake, NJ). The Bmax and Kd of each primary antibody were calculated using GraphPad Prism Version 9 (GraphPad Software, San Diego, CA)

cynomolgus monkey NaPi2b = target: T2, cynomolgus monkey NaPi2b (cynomolgus monkey, UniProt O95436 1-690 (human entry)); assay: flow cytometry on HEK293-6e cells transfected with cynomolgus monkey NaPi2b, 24 h at 4 C, anti-human IgG Fc AF647
T2 construct: also called Cyno NaPi2b; Cy NaPi2b
T2 chain: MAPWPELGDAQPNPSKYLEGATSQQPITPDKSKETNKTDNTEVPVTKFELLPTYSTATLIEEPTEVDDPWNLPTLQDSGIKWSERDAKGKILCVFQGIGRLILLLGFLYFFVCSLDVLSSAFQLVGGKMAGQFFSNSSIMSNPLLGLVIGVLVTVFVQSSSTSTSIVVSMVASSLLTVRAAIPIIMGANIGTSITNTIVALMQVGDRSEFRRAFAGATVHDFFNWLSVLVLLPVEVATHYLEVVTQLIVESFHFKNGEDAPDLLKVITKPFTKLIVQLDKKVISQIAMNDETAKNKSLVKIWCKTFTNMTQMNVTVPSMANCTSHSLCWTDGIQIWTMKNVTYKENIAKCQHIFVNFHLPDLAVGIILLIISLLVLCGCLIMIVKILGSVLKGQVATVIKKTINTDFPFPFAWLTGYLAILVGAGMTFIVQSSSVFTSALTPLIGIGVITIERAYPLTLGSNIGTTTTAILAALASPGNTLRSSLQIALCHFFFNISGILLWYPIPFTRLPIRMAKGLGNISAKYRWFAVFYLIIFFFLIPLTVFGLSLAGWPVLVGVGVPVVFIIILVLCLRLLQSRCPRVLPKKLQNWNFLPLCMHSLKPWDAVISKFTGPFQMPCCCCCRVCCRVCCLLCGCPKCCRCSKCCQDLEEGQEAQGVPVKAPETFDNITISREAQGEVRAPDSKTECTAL
Experimental: (§2) Following transfection, cells were seeded at 50,000 cells/well in conical-bottom 96-well plates and treated with test antibody or antibody-drug conjugate for 24 hours at 4° C. to prevent internalization. […] Following incubation and washing, fluorescence was detected by flow cytometry on a BD LSRFortessa™ Cell Analyzer (BD Biosciences, Franklin Lake, NJ) with 1,000 minimum events collected per well.

[2] = target: T1, human sodium-dependent phosphate …; assay: flow cytometry, HEK293-6e cells transfected with human NaPi2b; apparent Kd
Experimental: as §1

[3] = target: T1, human sodium-dependent phosphate …; assay: flow cytometry on HEK293-6e cells transiently transfected with human NaPi2b, antibody 18-24 h at 4 C, anti-human IgG Fc AF647
Experimental: as §1

[4] = target: T1, human sodium-dependent phosphate …; assay: flow cytometry on H441 cells (endogenous NaPi2b), 24 h at 4 C, anti-human IgG Fc AF647, APC-A GeoMean
Experimental: (§3) Cells were maintained under standard culture conditions (37° C./5% CO₂) until assay set-up. […] Cells were removed from culture vessels using Cell Dissociation Buffer (Invitrogen, Waltham, MA), seeded at 50,000 cells/well in conical-bottom 96-well plates, and treated with test antibody or antibody-drug conjugate for 24 hours at 4° C. to prevent internalization. […] Following incubation and washing, fluorescence was detected by flow cytometry on a BD LSRFortessa™ Cell Analyzer (BD Biosciences, Franklin Lake, NJ) with 1,000 minimum events collected per well.

[5] = target: T1, human sodium-dependent phosphate …; assay: flow cytometry on IGROV-1 cells (endogenous NaPi2b), 24 h at 4 C, anti-human IgG Fc AF647, APC-A GeoMean
Experimental: as §3

mouse NaPi2b = target: T3, mouse NaPi2b (mouse, UniProt Q9DBP0 1-697); assay: flow cytometry on HEK293-6e cells transfected with mouse NaPi2b, 24 h at 4 C, anti-human IgG Fc AF647
T3 construct: also called Ms NaPi2b; CL #13476
T3 sequence: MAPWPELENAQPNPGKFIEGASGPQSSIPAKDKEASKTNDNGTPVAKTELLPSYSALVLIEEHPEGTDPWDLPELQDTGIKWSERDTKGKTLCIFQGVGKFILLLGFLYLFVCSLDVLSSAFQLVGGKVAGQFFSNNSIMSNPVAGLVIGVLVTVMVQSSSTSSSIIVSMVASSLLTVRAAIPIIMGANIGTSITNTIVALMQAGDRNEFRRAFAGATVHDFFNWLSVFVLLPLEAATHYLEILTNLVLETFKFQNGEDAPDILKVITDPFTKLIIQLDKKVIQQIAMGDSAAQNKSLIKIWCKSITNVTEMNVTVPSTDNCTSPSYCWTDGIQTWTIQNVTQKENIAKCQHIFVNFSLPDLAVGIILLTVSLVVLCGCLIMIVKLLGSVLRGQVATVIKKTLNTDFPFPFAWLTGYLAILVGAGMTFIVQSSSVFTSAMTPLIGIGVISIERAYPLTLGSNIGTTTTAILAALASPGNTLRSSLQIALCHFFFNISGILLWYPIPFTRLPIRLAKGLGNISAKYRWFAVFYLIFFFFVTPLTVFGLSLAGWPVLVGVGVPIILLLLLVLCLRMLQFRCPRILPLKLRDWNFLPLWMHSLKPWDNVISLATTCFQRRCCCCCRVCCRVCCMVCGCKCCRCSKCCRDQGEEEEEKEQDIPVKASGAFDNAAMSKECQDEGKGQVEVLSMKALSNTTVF
Experimental: as §2

[6] = target: T1, human sodium-dependent phosphate …; assay: cell-based or functional assay

B1: v18993 (lifastuzumab), reference anti-NaPi2b antibody (antibody, human IgG1, kappa)
heavy 1: GEVQLVESGGGLVQPGGSLRLSCAASGFSFSDFAMSWVRQAPGKGLEWVATIGRVAFHTYYPDSMKGRFTISRDNSKNTLYLQMNSLRAEDTAVYYCARHRGFDVGHFDFWGQGTLVTVSSASTKGPSVFPLAPSSKSTSGGTAALGCLVKDYFPEPVTVSWNSGALTSGVHTFPAVLQSSGLYSLSSVVTVPSSSLGTQTYICNVNHKPSNTKVDKKVEPKSCDKTHTCPPCPAPELLGGPSVFLFPPKPKDTLMISRTPEVTCVVVDVSHEDPEVKFNWYVDGVEVHNAKTKPREEQYNSTYRVVSVLTVLHQDWLNGKEYKCKVSNKALPAPIEKTISKAKGQPREPQVYVYPPSRDELTKNQVSLTCLVKGFYPSDIAVEWESNGQPENNYKTTPPVLDSDGSFALVSKLTVDKSRWQQGNVFSCSVMHEALHNHYTQKSLSLSPG
heavy 2: not shown
light: GDIQMTQSPSSLSASVGDRVTITCRSSETLVHSSGNTYLEWYQQKPGKAPKLLIYRVSNRFSGVPSRFSGSGSGTDFTLTISSLQPEDFATYYCFQGSFNPLTFGQGTKVEIKRTVAAPSVFIFPPSDEQLKSGTASVVCLLNNFYPREAKVQWKVDNALQSGNSQESVTEQDSKDSTYSLSSTLTLSKADYEKHKVYACEVTHQGLSSPVTKSFNRGEC
Bmax [1]: 1610 | EC50 (read off the curve) (cynomolgus monkey NaPi2b): ~5 nM | Kd [2]: 1.22 nM | EC50 (read off the curve) [3]: ~1 nM

B2: v38591 (humanized anti-NaPi2b antibody, wild-type Fc) (antibody, human IgG1, kappa)
heavy: not shown
light: DVQMTQSPSSLSASVGDRVTITCRASQDVYSYLNWYQQKPGKAVKLLIYYTSRLQSGVPSRFSGSGSGTDYTLTISSLQPEDFATYYCQQYNIFPWTFGQGTKLEIKRTVAAPSVFIFPPSDEQLKSGTASVVCLLNNFYPREAKVQWKVDNALQSGNSQESVTEQDSKDSTYSLSSTLTLSKADYEKHKVYACEVTHQGLSSPVTKSFNRGEC
notes: also called v38591 Wild-type; H1L2
EC50 (read off the curve) (cynomolgus monkey NaPi2b): ~0.3 nM | EC50 (read off the curve) [4]: ~0.6 nM | EC50 (read off the curve) [5]: ~2 nM | EC50 (read off the curve) (mouse NaPi2b): ~0.3 nM

B3: v22277 (palivizumab, anti-RSV negative control, heterodimeric Fc) (antibody, human IgG1, kappa)
heavy 1: GQVTLRESGPALVKPTQTLTLTCTFSGFSLSTSGMSVGWIRQPPGKALEWLADIWWDDKKDYNPSLKSRLTISKDTSKNQVVLKVTNMDPADTATYYCARSMITNWYFDVWGAGTTVTVSSASTKGPSVFPLAPSSKSTSGGTAALGCLVKDYFPEPVTVSWNSGALTSGVHTFPAVLQSSGLYSLSSVVTVPSSSLGTQTYICNVNHKPSNTKVDKKVEPKSCDKTHTCPPCPAPELLGGPSVFLFPPKPKDTLMISRTPEVTCVVVDVSHEDPEVKFNWYVDGVEVHNAKTKPREEQYNSTYRVVSVLTVLHQDWLNGKEYKCKVSNKALPAPIEKTISKAKGQPREPQVYVYPPSRDELTKNQVSLTCLVKGFYPSDIAVEWESNGQPENNYKTTPPVLDSDGSFALVSKLTVDKSRWQQGNVFSCSVMHEALHNHYTQKSLSLSPG
heavy 2: not shown
light: GDIQMTQSPSTLSASVGDRVTITCKSQLSVGYMHWYQQKPGKAPKLLIYDTSKLASGVPSRFSGSGSGTEFTLTISSLQPDDFATYYCFQGSGYPFTFGGGTKLEIKRTVAAPSVFIFPPSDEQLKSGTASVVCLLNNFYPREAKVQWKVDNALQSGNSQESVTEQDSKDSTYSLSSTLTLSKADYEKHKVYACEVTHQGLSSPVTKSFNRGEC
notes: also called neg control
Internalized Fluorescence Fold-Over Palivizumab, HCC-78, 5 hrs, 10 nM [6]: 1 fold | Internalized Fluorescence Fold-Over Palivizumab, HCC-78, 24 hrs, 10 nM [6]: 1 fold | Internalized Fluorescence Fold-Over Palivizumab, NCI-H441, 5 hrs, 10 nM [6]: 1 fold | Internalized Fluorescence Fold-Over Palivizumab, NCI-H441, 24 hrs, 10 nM [6]: 1 fold | binding result [3]: no binding (tested: 200 nM) | binding result (mouse NaPi2b): no binding (tested: 200 nM)

B4: v18992 (MX35), reference anti-NaPi2b antibody (antibody, human IgG1, kappa)
heavy 1: GQVQLVQSGAEVVKPGASVKMSCKASGYTFTGYNIHWVKQAPGQGLEWIGAIYPGNGDTSYKQKFRGRATLTADTSTSTVYMELSSLRSEDSAVYYCARGETARATFAYWGQGTLVTVSSASTKGPSVFPLAPSSKSTSGGTAALGCLVKDYFPEPVTVSWNSGALTSGVHTFPAVLQSSGLYSLSSVVTVPSSSLGTQTYICNVNHKPSNTKVDKKVEPKSCDKTHTCPPCPAPELLGGPSVFLFPPKPKDTLMISRTPEVTCVVVDVSHEDPEVKFNWYVDGVEVHNAKTKPREEQYNSTYRVVSVLTVLHQDWLNGKEYKCKVSNKALPAPIEKTISKAKGQPREPQVYVYPPSRDELTKNQVSLTCLVKGFYPSDIAVEWESNGQPENNYKTTPPVLDSDGSFALVSKLTVDKSRWQQGNVFSCSVMHEALHNHYTQKSLSLSPG
heavy 2: not shown
light: GDIQMTQSPSSLSASVGDRVTITCSASQDIGNFLNWYQQKPGKTVKVLIYYTSSLYSGVPSRFSGSGSGTDYTLTISSLQPEDFATYYCQQYSKLPLTFGQGTKLELKRTVAAPSVFIFPPSDEQLKSGTASVVCLLNNFYPREAKVQWKVDNALQSGNSQESVTEQDSKDSTYSLSSTLTLSKADYEKHKVYACEVTHQGLSSPVTKSFNRGEC
Bmax [1]: 1900 | Kd [2]: 1.98 nM

Reference: patent US20260232827A1 (Zymeworks, published 2026)
